Measured values as given in PMC8642528.

Biological target: Myeloid-associated differentiation marker (human) (human (endogenous in blood eosinophils of asthmatic volunteers)) (UniProt Q96S97)
Sequence of UniProt Q96S97 (Q96S97 whole entry): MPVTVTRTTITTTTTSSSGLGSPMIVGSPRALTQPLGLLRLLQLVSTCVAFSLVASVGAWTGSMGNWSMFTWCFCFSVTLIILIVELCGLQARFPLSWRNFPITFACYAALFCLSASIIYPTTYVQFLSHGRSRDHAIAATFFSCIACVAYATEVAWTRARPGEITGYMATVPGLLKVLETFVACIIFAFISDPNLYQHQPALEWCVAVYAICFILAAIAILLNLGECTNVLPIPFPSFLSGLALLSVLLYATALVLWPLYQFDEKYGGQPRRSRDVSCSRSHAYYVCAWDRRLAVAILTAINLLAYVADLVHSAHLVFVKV

percent change in apoptotic human eosinophils (Siglec-8+, Annexin V/PI, flow cytometry, 16 h with SP-A) with pre-treatment using anti-MYADM (Invitrogen PA1-41578) compared to SP-A only: 22.5%
Substance: Surfactant protein A (SP-A), preparation genotyped as homozygous for Q (Q/Q) at position 223 of SP-A2 (from UniProt Q8IWL2 21-248; Q8IWL1 21-248) (complex)
